Laboratory results as given in patent US20040048243A1, “Methods and compositions for in vitro targeting” (priority 2003, published 2004).
No end group written: not given here.

Legend:
CD13 = molecular target: T1, CD13 (Sus scrofa, UniProt P15145); assay: Peptide competition of angiostatin binding to CD13; details: up to 500 μg of peptide; not shown
T1 construct: purchased Sigma, St Louis, Mo; L-9776
T1 sequence (P15145 2-963 limits assumed): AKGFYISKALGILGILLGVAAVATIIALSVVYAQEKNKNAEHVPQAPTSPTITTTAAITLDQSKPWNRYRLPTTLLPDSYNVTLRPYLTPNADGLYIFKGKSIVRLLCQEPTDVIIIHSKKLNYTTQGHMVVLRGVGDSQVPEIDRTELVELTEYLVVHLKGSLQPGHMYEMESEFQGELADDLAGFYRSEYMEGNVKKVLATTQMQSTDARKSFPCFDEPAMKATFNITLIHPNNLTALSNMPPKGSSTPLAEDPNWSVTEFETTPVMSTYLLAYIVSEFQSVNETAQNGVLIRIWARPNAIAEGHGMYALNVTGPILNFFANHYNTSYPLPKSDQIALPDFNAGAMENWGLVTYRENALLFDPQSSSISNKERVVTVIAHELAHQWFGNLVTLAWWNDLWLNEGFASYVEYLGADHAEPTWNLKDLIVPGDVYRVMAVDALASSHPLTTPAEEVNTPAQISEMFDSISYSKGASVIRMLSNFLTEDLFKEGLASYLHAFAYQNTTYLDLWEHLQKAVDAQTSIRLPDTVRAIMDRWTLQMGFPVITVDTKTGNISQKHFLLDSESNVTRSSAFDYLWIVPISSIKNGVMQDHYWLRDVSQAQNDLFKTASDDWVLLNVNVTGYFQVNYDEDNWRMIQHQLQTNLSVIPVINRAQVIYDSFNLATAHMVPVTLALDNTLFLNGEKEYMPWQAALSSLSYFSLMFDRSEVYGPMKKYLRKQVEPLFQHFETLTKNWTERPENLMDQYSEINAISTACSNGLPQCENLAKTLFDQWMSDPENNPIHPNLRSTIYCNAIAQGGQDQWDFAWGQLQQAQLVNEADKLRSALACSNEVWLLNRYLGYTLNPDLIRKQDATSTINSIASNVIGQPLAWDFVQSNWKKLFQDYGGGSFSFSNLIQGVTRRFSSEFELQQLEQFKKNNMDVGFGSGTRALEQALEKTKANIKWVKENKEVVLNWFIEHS
Experimental: (§1) To assess protein-protein interactions, 100 ng/well of protein was coated in triplicate in 96-well plates. The plates were dried at 37° C., blocked with PBS and 3% BSA, and incubated with 10 μg/ml of rhAngiostatin in PBS+1% BSA for three hours at RT. The wells were washed three times with PBS, 3% BSA, 0.01% Tween 20 before incubation with anti-rhAngiostatin antibody (R&D Systems, Inc #AF226) at 1 μg/ml for 1 hour at RT. The wells were then washed three times with PBS, 3% BSA, 0.01% Tween 20 and incubated with […] anti-goat antibody. After washing 3 times with PBS, 0.01% Tween 20 and once with PBS, the wells were developed with p-nitrophenyl phosphate. Binding of alkaline phosphate conjugate was detected colorimetrically at […]. using an ELISA microplate reader.
Binding of angiostatin to CD13 was competitive with the NGR peptide (Burg et al., 1999) in a dose-dependent manner (not shown). Control experiments were run with the CARAC peptide (SEQ ID NO: 169) (not shown). Binding of angiostatin to CD13 was inhibited by more than 50% by 0.5 μg of NGR peptide, while binding was unaffected by up to 500 μg of CARAC peptide (SEQ ID NO: 169) (not shown).

KS1767 cells = assay: Inhibition of HWGF-β-gal phage transduction by synthetic peptides; format: cell-based, human; details: target cells pre-incubated with synthetic peptide; dose-dependent
Experimental: (§2) In the peptide inhibition experiments, MDA-MB435 cells were cultured on 12-well plates and then incubated with 10 μg of RGD-4C peptide (SEQ ID NO: 166) or control peptides (CARAC, SEQ ID NO: 169 or CKDRFERC, SEQ ID. NO: 59) in normal growth media for 30 minutes. KS1767 cells were grown on 12-well plates and then incubated with 40 μg CTTHWGFTLC (SEQ D NO: 167) or control peptides in normal growth media for 30 minutes. After this the growth media were replaced by 500 μl of MEM containing 2% FCS and 5×10^10 transducing units (TU) of either RGD-4C-β-gal, HWGF-β-gal, or control fd-β-gal phage. Phage vectors were incubated on peptide-treated cells (three hours at 37° C., 5% CO2) followed by a media change to MEM plus 10% FCS. Transduced cells were then maintained in a cell incubator for 72 hours (37° C., 5% CO2).
(§3) In the peptide inhibition assays, β-gal activity in cell lysates was detected by the Galacto-Star® chemiluminescent reporter gene system (Tropix, Bedford, Mass.) according to the manufacturer's protocol. […] Cells were analyzed for GFP gene expression at 72 hours post infection. For GFP detection, cells were analyzed by fluorescence activated cell sorting (FACS) in a FACScan (Becton-Dickinson, San Jose, Calif.) or counted and photographed under a fluorescence microscope (Nikon).

MDA-MB435 cells = assay: Inhibition of RGD-4C-β-gal phage transduction by synthetic peptides; format: cell-based, human; details: target cells pre-incubated with synthetic peptide; dose-dependent
Experimental: as §2, §3

[1] = test system: tumor-associated antigens in tissue sections from bone marrow metastasis; assay: Immunohistological staining with antibodies against peptide C; format: binding, human; details: antibodies pre-incubated with GST-peptide C
Experimental: GST-fusion proteins containing the peptide sequence from patient C were coated on multi-well plates. After incubating the plates with the patient's serum, the plates were washed. The bound IgG antibodies were eluted with 50 μl of 0.1 M glycine buffer, pH 2.2, neutralized by addition of 10 μl 1 M Tris pH 9.0, and dialyzed in PBS overnight followed by concentration of the antibody using Centricon-30 (Millipore) filters. The purified antibody (500 μg) was coupled to biotin according to the manufacturer's instructions (Vector). The biotinylated antibody was analyzed by SDS-gel electrophoresis.
Paraffin sections from patient C were stained with purified biotinylated antibodies and peptide antibodies by immunoperoxidase detection using the Dako antigen retrieval kit and DAB as a substrate. All of the sections (4 μm) were counter-stained with hematoxylin. The biotinylated immunopurified antibodies were used at a dilution of 1:100. Peptide C antibodies and purified pre-immune antibodies were used at 0.01 μg/μl. For the inhibition staining, peptide C antibodies were pre-incubated for 30 minutes at room temperature with the GST-peptide C (500μg) prior to staining. Peptide antibodies were generated in rabbits and purified using a T-gel immunoglobulin purification kit and protein G column (Pierce).

[2] = test system: angiostatin receptor in tissue sections; assay: Angiostatin staining of tissue sections of metastatic human bone marrow; format: binding; details: 100 μg/ml rh-angiostatin, anti-angiostatin antibody detection
Experimental: Angiostatin was incubated with tissue sections of metastitic human bone marrow. After washing, the tissue sections were developed with an anti-angiostatin Ab, followed by the corresponding secondary Ab conjugated to peroxidase. […] The staining was specific since only this structure and not other cells were stained.
Anti-human Angiostatin were purchased (R&D Systems: AF226). rhAngiostatin was produced by EntreMed, Inc. (Rockville, Md.). Surgical specimens of human metastases (Bouin-fixed 4-6 h, paraffin-embedded sections, 5-6 μm thick) were adsorbed on polylysine-coated slides. Tissue slides were incubated with 100 μg/ml of rh-angiostatin. The slides were washed 3 times and incubated with anti-angiostatin antibody. The slides were washed again 3 times and bound antibodies were detected using an anti-goat peroxidase-conjugate antibody.

Thrombospondin 1 (TSP-1) = molecular target: T2, Thrombospondin 1 (TSP-1) (Homo sapiens, UniProt P07996); assay: Protein-protein interaction ELISA: rhAngiostatin binding to coated protein; details: TSP-1, positive control
T2 construct: purchased Calbiochem, San Diego, Calif; 605225
Experimental: as §1

COL IV (collagen IV) = assay: as above
Experimental: as §1

CD13 (Aminopeptidase N) = molecular target: T3, CD13 (Aminopeptidase N) (Sus scrofa, UniProt P15145); assay: as above
T3 construct: purchased Sigma, St Louis, Mo; L-9776
T3 sequence (P15145 1-963): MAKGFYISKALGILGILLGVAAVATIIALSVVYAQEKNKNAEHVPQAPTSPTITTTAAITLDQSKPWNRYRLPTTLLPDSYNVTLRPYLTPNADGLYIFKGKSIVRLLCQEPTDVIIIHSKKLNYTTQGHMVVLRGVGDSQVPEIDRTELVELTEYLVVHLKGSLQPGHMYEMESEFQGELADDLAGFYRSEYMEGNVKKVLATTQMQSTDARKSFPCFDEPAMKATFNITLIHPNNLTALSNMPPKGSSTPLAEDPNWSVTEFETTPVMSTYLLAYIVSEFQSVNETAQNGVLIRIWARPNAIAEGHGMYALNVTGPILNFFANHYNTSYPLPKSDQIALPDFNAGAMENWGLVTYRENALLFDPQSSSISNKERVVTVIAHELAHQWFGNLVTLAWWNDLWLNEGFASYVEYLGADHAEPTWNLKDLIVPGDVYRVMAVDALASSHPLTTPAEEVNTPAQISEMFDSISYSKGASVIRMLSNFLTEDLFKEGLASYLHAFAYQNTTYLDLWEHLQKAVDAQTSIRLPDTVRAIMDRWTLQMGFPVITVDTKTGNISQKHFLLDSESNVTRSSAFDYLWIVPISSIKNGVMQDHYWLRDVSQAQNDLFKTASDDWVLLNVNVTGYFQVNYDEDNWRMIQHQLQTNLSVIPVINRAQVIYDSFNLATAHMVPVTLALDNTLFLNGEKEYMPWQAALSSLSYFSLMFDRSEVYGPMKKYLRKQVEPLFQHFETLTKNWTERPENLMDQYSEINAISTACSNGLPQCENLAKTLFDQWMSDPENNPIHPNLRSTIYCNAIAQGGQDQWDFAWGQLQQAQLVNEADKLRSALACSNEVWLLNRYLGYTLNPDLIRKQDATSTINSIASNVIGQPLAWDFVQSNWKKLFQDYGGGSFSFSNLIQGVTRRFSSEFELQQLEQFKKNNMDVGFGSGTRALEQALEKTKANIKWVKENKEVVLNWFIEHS
Experimental: as §1

FN (fibronectin) = FN (fibronectin) (Homo sapiens, UniProt P02751); assay: as above
Experimental: as §1

LN (laminin) = assay: as above
Experimental: as §1

VN (vitronectin) = molecular target: T4, VN (vitronectin) (Homo sapiens, UniProt P04004); assay: as above
T4 sequence (P04004 20-478): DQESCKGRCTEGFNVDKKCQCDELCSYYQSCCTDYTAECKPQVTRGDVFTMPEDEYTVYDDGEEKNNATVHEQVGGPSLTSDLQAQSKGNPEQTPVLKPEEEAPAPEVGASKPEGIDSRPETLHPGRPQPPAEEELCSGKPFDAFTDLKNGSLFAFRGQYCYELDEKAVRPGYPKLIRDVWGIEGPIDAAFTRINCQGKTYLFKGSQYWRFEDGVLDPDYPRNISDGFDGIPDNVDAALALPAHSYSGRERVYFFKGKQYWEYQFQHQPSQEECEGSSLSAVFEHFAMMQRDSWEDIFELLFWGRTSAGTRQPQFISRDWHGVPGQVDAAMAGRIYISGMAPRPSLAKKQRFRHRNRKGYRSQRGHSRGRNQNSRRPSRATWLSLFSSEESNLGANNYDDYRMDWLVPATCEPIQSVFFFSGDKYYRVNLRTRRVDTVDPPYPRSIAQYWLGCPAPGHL
Experimental: as §1

[3] = molecular target: T5, HGF (hepatocyte growth factor) (Homo sapiens, UniProt P14210); assay: as above
T5 construct: purchased Calbiochem, San Diego, Calif; 375228
Experimental: as §1

bovine serum albumin = molecular target: T6, bovine serum albumin (bovine, UniProt P02769 25-607); assay: phage binding assay (FIG. 22)
T6 construct: control protein coated on wells; also called BSA
T6 sequence (P02769 25-607 limits assumed): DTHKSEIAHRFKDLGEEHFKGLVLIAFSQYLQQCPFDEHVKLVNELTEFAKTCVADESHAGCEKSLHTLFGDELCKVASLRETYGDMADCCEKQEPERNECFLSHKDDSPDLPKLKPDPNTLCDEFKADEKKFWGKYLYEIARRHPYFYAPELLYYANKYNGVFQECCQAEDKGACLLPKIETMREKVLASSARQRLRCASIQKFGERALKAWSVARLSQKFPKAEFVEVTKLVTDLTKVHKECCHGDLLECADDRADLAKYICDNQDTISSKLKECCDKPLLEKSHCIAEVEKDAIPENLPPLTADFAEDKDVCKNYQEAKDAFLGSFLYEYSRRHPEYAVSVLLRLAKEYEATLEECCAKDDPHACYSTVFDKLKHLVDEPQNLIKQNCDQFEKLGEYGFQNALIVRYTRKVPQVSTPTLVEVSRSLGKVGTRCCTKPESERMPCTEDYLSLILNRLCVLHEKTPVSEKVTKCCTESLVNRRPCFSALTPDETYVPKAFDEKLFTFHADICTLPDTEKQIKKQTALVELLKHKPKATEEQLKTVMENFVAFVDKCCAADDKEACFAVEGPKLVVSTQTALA

T5 sequence (P14210 32-728): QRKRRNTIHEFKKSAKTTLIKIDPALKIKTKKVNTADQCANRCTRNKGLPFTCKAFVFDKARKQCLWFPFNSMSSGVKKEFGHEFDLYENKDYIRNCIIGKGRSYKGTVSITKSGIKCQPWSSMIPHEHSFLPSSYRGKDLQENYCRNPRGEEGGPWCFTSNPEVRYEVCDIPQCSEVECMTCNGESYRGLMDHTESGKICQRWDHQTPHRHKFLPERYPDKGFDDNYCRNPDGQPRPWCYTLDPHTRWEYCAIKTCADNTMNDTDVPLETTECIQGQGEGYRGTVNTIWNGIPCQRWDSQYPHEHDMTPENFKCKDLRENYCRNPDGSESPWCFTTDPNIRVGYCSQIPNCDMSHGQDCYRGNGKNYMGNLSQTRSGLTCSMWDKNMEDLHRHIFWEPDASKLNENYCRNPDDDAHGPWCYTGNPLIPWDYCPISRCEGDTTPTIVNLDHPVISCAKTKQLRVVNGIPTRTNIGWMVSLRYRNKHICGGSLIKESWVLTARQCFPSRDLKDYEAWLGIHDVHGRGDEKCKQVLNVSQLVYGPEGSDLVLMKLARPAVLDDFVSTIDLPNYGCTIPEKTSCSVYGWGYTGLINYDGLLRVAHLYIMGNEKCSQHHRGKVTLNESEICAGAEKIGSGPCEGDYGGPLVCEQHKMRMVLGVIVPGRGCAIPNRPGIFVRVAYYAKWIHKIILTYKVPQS
FN (fibronectin), sequence (P02751 32-2477, species assumed): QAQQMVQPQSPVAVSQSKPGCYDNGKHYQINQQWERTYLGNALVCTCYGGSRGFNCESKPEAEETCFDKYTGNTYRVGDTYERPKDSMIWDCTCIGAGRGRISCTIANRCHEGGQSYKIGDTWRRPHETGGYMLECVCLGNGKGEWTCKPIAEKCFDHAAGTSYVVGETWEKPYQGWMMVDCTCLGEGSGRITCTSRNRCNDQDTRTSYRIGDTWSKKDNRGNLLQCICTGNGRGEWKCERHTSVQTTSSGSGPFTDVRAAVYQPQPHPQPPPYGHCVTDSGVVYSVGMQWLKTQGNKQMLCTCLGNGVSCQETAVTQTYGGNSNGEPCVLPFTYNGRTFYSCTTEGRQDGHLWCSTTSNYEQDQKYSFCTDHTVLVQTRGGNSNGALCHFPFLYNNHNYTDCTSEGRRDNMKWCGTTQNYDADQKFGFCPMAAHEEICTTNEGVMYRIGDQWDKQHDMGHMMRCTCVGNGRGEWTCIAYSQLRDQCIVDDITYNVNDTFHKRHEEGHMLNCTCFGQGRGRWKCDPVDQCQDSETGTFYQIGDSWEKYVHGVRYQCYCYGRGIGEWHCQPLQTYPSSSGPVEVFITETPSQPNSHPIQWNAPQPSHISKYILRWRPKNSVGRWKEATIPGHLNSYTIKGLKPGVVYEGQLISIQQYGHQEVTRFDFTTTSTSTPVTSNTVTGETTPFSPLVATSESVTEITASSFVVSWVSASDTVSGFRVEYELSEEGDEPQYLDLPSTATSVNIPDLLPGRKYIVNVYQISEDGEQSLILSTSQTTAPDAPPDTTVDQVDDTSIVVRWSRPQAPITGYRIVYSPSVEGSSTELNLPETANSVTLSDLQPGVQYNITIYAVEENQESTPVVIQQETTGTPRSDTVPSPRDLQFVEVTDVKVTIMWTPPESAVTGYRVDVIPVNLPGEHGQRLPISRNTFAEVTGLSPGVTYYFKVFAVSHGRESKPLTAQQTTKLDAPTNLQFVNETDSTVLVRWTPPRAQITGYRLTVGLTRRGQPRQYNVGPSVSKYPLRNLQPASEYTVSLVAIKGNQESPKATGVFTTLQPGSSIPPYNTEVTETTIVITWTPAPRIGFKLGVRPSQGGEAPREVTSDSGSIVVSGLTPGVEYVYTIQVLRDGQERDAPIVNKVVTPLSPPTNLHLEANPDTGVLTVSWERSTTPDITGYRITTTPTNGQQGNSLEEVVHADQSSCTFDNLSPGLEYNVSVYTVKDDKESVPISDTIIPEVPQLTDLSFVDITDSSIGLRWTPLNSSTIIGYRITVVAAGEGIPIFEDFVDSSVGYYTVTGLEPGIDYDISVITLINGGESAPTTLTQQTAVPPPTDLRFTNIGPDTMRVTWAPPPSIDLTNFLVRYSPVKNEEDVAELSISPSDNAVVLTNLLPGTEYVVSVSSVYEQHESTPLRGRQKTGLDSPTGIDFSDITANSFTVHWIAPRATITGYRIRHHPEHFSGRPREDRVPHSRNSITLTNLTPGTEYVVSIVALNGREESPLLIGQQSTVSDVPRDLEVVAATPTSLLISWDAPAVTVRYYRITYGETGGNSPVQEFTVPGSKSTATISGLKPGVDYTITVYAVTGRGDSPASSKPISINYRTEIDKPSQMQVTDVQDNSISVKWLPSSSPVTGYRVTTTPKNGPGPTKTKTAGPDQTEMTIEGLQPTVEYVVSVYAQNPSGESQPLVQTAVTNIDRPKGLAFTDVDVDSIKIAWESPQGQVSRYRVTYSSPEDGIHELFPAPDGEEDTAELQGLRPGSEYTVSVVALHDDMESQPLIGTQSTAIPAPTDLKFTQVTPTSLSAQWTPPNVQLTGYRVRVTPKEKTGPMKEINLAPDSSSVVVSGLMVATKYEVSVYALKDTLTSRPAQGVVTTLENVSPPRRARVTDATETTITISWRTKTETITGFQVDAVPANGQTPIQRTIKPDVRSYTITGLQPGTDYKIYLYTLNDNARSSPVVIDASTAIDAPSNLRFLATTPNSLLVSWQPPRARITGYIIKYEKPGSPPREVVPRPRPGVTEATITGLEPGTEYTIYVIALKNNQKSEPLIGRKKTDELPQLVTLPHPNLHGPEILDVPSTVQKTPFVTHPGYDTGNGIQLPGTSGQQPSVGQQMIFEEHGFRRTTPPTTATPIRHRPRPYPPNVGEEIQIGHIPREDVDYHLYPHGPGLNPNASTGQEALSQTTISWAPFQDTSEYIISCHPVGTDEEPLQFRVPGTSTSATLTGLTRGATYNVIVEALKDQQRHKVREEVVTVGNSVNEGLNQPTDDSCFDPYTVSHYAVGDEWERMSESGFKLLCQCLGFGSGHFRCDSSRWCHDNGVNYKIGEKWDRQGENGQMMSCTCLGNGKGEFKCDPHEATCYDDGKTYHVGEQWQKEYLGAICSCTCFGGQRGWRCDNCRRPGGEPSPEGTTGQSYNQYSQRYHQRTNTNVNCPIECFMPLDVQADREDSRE
T2 sequence (P07996 19-1170): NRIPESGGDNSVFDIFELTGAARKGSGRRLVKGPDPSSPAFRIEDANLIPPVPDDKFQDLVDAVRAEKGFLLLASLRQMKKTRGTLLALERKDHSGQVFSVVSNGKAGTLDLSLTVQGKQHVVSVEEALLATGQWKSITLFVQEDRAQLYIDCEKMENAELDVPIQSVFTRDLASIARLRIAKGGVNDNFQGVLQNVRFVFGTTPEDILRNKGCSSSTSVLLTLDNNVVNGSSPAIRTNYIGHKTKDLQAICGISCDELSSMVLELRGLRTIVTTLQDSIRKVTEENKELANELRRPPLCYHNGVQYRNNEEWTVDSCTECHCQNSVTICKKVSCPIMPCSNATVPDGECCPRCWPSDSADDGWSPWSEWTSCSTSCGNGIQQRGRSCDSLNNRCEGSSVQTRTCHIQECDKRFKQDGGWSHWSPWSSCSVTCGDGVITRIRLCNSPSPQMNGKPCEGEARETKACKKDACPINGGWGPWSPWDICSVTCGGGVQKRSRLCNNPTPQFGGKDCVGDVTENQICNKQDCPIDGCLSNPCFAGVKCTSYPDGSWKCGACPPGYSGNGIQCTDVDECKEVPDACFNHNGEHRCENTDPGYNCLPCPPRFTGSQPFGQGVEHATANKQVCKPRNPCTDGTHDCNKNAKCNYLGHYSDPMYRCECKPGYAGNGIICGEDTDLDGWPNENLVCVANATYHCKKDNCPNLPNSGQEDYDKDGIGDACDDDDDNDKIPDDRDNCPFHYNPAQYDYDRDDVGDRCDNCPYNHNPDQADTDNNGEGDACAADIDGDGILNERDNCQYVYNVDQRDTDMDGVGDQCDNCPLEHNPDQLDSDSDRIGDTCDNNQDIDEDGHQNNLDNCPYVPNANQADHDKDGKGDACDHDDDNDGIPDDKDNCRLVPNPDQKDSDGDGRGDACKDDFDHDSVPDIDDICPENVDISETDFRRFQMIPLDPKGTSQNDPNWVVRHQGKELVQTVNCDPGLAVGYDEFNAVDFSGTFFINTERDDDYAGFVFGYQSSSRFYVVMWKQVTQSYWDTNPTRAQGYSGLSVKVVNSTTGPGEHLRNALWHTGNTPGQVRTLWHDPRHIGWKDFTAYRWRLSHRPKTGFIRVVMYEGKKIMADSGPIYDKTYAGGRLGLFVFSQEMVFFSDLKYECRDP

## O=c1[nH]cc(F)c(=O)[nH]1 [CARAC peptide, CARAC]
CD13
  effect on binding of angiostatin to CD13: unaffected

## CTTHWGFTLC
KS1767 cells
  inhibition of HWGF-β-gal phage transduction: greater than 90%

## CDCRGDCFC [RGD4C peptide]
MDA-MB435 cells
  inhibition of RGD-4C-β-gal phage transduction: greater than 99%

## GST-fusion protein containing peptide C: GST-fusion protein containing peptide C (CNVSDKSC; cysteine pairing not given here; also: fused to GST)
[1]
  inhibition of anti-peptide C staining: completely inhibited

B1: angiostatin: rh-Angiostatin produced by EntreMed, Inc. (protein)
chain: VYLSECKTGNGKNYRGTMSKTKNGITCQKWSSTSPHRPRFSPATHPSEGLEENYCRNPDNDPQGPWCYTTDPEKRYDYCDILECEEECMHCSGENYDGKISKTMSGLECQAWDSQSPHAHGYIPSKFPNKNLKKNYCRNPDRELRPWCFTTDPNKRWELCDIPRCTTPPPSSGPTYQCLKGTGENYRGNVAVTVSGHTCQHWSAQTPHTHNRTPENFPCKNLDENYCRNPDGKRAPWCHTTNSQVRWEYCKIPSCDSSPV
[2]
  staining of tissue sections: vessel-like
Thrombospondin 1 (TSP-1)
  binding of angiostatin to coated protein: binds
COL IV (collagen IV)
  binding of angiostatin to coated protein: not
CD13 (Aminopeptidase N)
  binding of angiostatin to coated protein: binds
FN (fibronectin)
  binding of angiostatin to coated protein: not
LN (laminin)
  binding of angiostatin to coated protein: not
VN (vitronectin)
  binding of angiostatin to coated protein: not
[3]
  binding of angiostatin to coated protein: binds

## CVPELGHEC (cysteine pairing not given here; also: displayed on phage) [phage bearing the sequence CVPELGHEC]
Bovine serum albumin
  binding result: no binding
